In publication PMC10519987:

How the values were obtained:
[1] = target: carboxy-terminal domain of Saccharomyces cerevisiae RNA polymerase II subunit RPB1 (yCTD) (Saccharomyces cerevisiae); assay: dynamic light scattering + microscopy; tag-free CTD alone, no crowding agents; 25 mM HEPES, 1.0 mM TCEP, pH 7.4 (also pH 6.2), 50-1000 mM NaCl, rising temperature; self-coacervation into droplets
[2] = target: carboxy-terminal domain of human RNA polymerase II subunit RPB1 (hCTD) (human) (UniProt P24928); assay: as above

Row | minimal concentration of droplet formation [1] | minimal concentration of droplet formation [2] | Substance
1 | 100 µM |  | carboxy-terminal domain of Saccharomyces cerevisiae RNA polymerase II subunit RPB1 (yCTD) (domain or fragment)
2 |  | 25 µM | carboxy-terminal domain of human RNA polymerase II subunit RPB1 (hCTD) (from UniProt P24928 1593-1970) (domain or fragment)
